From patent US20150353909

T1: HA3-RUB-GST, Q9SHE7
T1 chain: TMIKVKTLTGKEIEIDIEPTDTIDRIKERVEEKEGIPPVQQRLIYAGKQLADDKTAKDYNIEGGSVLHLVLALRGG


Experiments:
HA3-RUB-GST, Q9SHE7 = target: T1, HA3-RUB-GST, Q9SHE7
[1] = target: HA3-UBQ-GST [GST: P08515]
[2] = target: K48-tetraubiquitin chains, P0CG48
[3] = target: K63-tetraubiquitin chains, P0CG48
[4] = target: purified recombinant linear UB dimers
[5] = target: purified recombinant linear UB tetramers
[6] = target: purified recombinant linear UB trimers

Chain of K48-tetraubiquitin chains, P0CG48 (P0CG48 whole entry, looked up): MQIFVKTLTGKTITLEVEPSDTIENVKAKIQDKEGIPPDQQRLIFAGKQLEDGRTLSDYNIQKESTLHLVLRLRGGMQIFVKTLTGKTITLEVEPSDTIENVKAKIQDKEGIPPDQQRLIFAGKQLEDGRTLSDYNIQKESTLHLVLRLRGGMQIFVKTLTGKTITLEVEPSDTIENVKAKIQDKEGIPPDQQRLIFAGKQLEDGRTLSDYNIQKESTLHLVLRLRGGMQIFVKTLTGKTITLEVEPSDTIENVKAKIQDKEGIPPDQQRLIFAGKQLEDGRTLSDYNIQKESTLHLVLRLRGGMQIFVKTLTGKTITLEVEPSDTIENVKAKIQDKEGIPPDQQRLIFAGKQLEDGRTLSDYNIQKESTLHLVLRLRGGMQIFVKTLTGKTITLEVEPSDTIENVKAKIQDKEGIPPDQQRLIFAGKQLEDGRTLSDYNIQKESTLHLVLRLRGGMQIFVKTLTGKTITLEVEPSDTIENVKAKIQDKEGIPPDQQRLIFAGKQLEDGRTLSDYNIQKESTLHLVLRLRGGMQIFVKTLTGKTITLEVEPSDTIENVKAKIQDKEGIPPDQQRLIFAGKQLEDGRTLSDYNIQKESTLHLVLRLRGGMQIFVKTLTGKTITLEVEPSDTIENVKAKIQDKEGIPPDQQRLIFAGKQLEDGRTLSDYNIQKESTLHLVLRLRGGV
Chain of K63-tetraubiquitin chains, P0CG48 (P0CG48 whole entry, looked up): as above

| Protein | in vitro deubiquitylation activity (HA3-RUB-GST, Q9SHE7) | in vitro deubiquitylation activity (HA3-SUMO-GST, P55852) | in vitro deubiquitylation activity [1] | in vitro deubiquitylation activity [2] | in vitro deubiquitylation activity [3] | in vitro deubiquitylation activity [4] | in vitro deubiquitylation activity [5] | in vitro deubiquitylation activity [6] |
| --- | --- | --- | --- | --- | --- | --- | --- | --- |
| His-tagged OTU7a (protein) MAKTKQQKSKPKKQPHQKQGKDCDLSQFRAQLDALGLKIIQVTADGNCFFRAIADQLEGNEDEHNKYRNMIVLYIVKNREMFEPFIEDDVPFEDYCKTMDDDGTWAGNMELQAASLVTRSNICIHRNMSPRWYIRNFEDTRTRMIHLSYHDGEHYNSVRSKEDACGGPARPVVIEADAKVSAASKQAKATESKSKNKADKCHVNAGAIKVVMSGSCCDNTEKAEQVLLQVNGDVDAAIEFLIADQGMESLTENDTETASASDTINPKHASDSPMENTEQAREELIEEESASGNNSETVQAKCTTQTDDKKIPRNKTCPCGSKKKYKSCCGTATGRSSVKLLVSQTMESKKGRKNLRRGTSNEVEANAPDVGALCI | + | - | ++ | + | ++ | - | - | - |
| His-tagged OTU2 (protein) MEGIIVRRVIPSDNSCLFNAIGYVMDKDKNKAPELRQVIAAAVASNKEKYNEAFLGKLNEEYCAWILNPDKWGGAIELSILADYYGREIAAYDIQTSRCDLYGQTRNYDERVMLIYDGLHYDALALSPFEGAEEDFDMTIYPVGKDRSIGSIEGLALNLVKDQQRKRSYTDTANFTLRCGVCQIGVIGQKEAVEHAQATGHVNFQEYK | - | - | - | + | + | - | - | - |
| His-tagged OTU9 (protein) MGYEPDPDALRWGLHDLEVCTLTNAGSCSSVTRYESGGGGTQGYVREGYNQPVTGYVDNDAVIAQFYQDELSRVARAEASGINSLSPTSVVAQDWPHPHQGQENQGEAIDITQESDILHNHNGNMEDKNVARIRFEGGQSSPSRDDDSVCSVEIEEESWSEVGKRLNQMIPIAHVPKINGELPSEDEQISDHERLFQRLQLYGLVENKIEGDGNCQFRSLSDQLYRSPEHHNFVREQVVNQLAYNREIYEGYVPMAYNDYLKAMKRNGEWGDHVTLQAAADLFGVRMFVITSFKDTCYIEILPHFQKSNRLICLSFWAEVHYNSIYPEGELPIPEGKKKKKYWVF | + | - | ++ | ++ | ++ | - | - | - |
| GST-OTU10 (protein) MVSHEENTSIVEWFLGPHPYTYPPYGIEMIHEDDEVAVAHHHHHHQSGEYYREYEDHRSSDVDNDEIIARTLQDDFLQLEIAESNDYSHQNQQQQHQQEGYTNNYSNNNNGYAWNDQSPAVDYSSEWIGNDNDQDGRSDDSVNVFSCSSPSDTDEYVYSWESDQCDADGEFGRRLNQMVPIPYIPKINGEIPPEEEAVSDHERLRNRLEMFDFTEVKVPGDGNCQFRALADQLYKTADRHKHVRRQIVKQLKSRPDSYQGYVPMDFSDYLRKMSRSGEWGDHVTLQAAADAYRVKIVVLTSFKDTCYIEILPTSQESKGVIFLSFWAEVHYNAIYLNRDTSETELQRKRKWWRFGN | + | - | ++ | ++ | +++ | - | - | - |
| GST-OTU4c (protein) MMICYSPITTCSRNAISIKRHLGSRLYGVVAHGSSKFSCYSLLSGLSRRHYTGFRVSVSNRPSSWHDKGLFGFAYTGVIVSLLVCYSSTSQSAYADSSRDKDANNVHHHSSDGKFHNGKRVYTDYSIIGIPGDGRCLFRSVAHGFCLRSGKLAPGEKMQRELADELRTRVADEFIQRRQETEWFVEGDFDTYVRQIRDPHVWGGEPELFMASHVLQMPITVYMKDDKAGGLISIAEYGQEYGKDDPIRVLYHGFGHYDALLLHESKASIPKSKL | + | - | ++ | +++ | +++ | - | ++ | ++ |
| His-tagged OTU3 (protein) MELKSSSNNNILEQLRNGFARFELVSSPTASVSDSISSTSLPASFISTTKGNSYVFFARINSSMNRSPAAKKVEKYAVDRVKGDGRCLFRALVKGMAFNKGITLNPQRERDDADELRMAVKEVICNDPKEREKYKEALVAITVDESLKRFCQRIGRHDFWGGESELLVLSKLCKQPIIVYIPEHEHGRGGGYGPGFIPIQEYGSEFRGGWGKGKTNKNVVRLLYSGRNHYDLLR | + | - | ++ | ++ | +++ | - | + | + |
